According to patent publication US20220409694A1, “POLYPEPTIDE, AND PREPARATION METHOD THEREFOR AND USE THEREOF” (SHANXI JINBO BIO-PHARMACEUTICAL CO., LTD., priority 2020, published 2022):

How the values were obtained:
Experiment in all cases: cell-based or functional assay
[1] = target: Rs3367-CoV S protein (pcDNA3.1-Rs3367-CoV-S, on pseudovirus) (Rs3367-CoV (SARS-like virus from bats))
[2] = target: 2019-nCoV S protein (2019-nCoV-S, as encoded in pAAV-IRES-EGFP-2019-nCoV-S / pcDNA3.1) (2019-nCoV (SARS-CoV-2)) (UniProt P0DTC2)
[3] = target: S protein of live 2019-nCoV (SARS-CoV-2) virus (2019-nCoV (SARS-CoV-2)) (UniProt P0DTC2)
[4] = target: WIV1-CoV S protein (pcDNA3.1-WIV1-CoV-S, on pseudovirus) (WIV1-CoV (SARS-like virus from bats))
[5] = target: SARS-CoV S protein (pcDNA3.1-SARS-CoV-S, on pseudovirus) (SARS-CoV) (UniProt P59594)

Substance | Inhibitory Activity, IC50 (pseudovirus infection of HuH7, luciferase) [1] [µM] | Inhibitory Activity, IC50 (pseudovirus infection of HuH7, luciferase) [2] [µM] | IC50, 2019-nCoV live virus (plaque reduction assay, VERO-E6) [3] [µM] | Inhibitory Activity, IC50 (pseudovirus infection of HuH7, luciferase) [4] [µM] | Inhibitory Activity, IC50 (pseudovirus infection of HuH7, luciferase) [5] [µM]
EK1-chol (peptide) | 0.03 | 0.02 | 0.0365 | 0.04 | 0.01
EK1-plam (peptide) | 0.13 | 0.36 | 0.436 | 0.1 | 0.17
